Biological target: Botulinum toxin B (UniProt P10844)
Assay: cell-based or functional assay

Substance | inhibition of BttxB endoprotease activity (cleavage of VAMP2 55-94, RP-HPLC) | inhibition of BttxB activity relative to B-I (% as effective as B-I)
Buforin I (peptide) | 1000 nM | –
Buforin II (peptide) | – | 25

— patent US20050113304A1
